No end group written: not given here. fluorescein = fluorescein: fluorescein label attached at the N-terminus of the peptide
B1: Fluoroscein-NCOR ID-C peptide (NCoR amino acids 2251-2275) (peptide)
peptide: fluorescein-GHSFADPASNLGLEDIIRKALMGSF
notes: also called NCOR peptide; NCoR 2251-2275
B3: human PPARγ ligand binding domain (amino acids 206-477) (receptor)
chain: MKKGHHHHHHGPESADLRALAKHLYDSYIKSFPLTKAKARAILTGKTTDKSPFVIYDMNSLMMGEDKIKFKHITPLQEQSKEVAIRIFQGCQFRSVEAVQEITEYAKSIPGFVNLDLNDQVTLLKYGVHEIIYTMLASLMNKDGVLISEGQGFMTREFLKSLRKPFGDFMEPKFEFAVKFNALELDDSDLAIFIAVIILSGDRPGLLNVKPIEDIQDNLLQALELQLKLNHPESSQLFAKLLQKMTDLRQIVTEHVQLLQVIKKTETDMSLHPLLQEIYKDLY
notes: range 206-477; placed at the N-terminus here; Biotinylated for FRET; also called PPARγ LBD
B4: RXRα ligand binding domain (amino acids 225-462) (receptor, UniProt P19793 225-462, looked up)
chain: SANEDMPVERILEAELAVEPKTETYVEANMGLNPSSPNDPVTNICQAADKQLFTLVEWAKRIPHFSELPLDDQVILLRAGWNELLIASFSHRSIAVKDGILLATGLHVHRNSAHSAGVGAIFDRVLTELVSKMRDMQMDKTELGCLRAIVLFNPDSKGLSNPAEVEALREKVYASLEAYCKHKYPEQPGRFAKLLLRLPALRSIGLKCLEHLFFFKLIGDTPIDTFLMEMLEAPHQMT
notes: range 225-462; Biotinylated for FRET; also called RXRα LBD; not shown: His-tag
B5: human PPARδ ligand binding domain (amino acids 139-441) (receptor)
chain: MKKGHHHHHHGSHNAIRFGRMPEAEKRKLVAGLTANEGSQYNPQVADLKAFSKHIYNAYLKNFNMTKKKARSILTGKASHTAPFVIHDIETLWQAEKGLVWKQLVNGLPPYKEISVHVFYRCQCTTVETVRELTEFAKSIPSFSSLFLNDQVTLLKYGVHEAIFAMLASIVNKDGLLVANGSGFVTREFLRSLRKPFSDIIEPKFEFAVKFNALELDDSDLALFIAAIILCGDRPGLMNVPRVEAIQDTILRALEFHLQANHPDAQYLFPKLLQKMADLRQLVTEHAQMMQRIKKTETETSLHPLLQEIYKDMY
modifications: Biotinylated (site not stated) in the FRET assays; unlabelled in fluorescence polarization and SPR.
notes: placed at the N-terminus here; Biotinylated for FRET; also called PPARδ LBD

Legend:
[1] = molecular target: T1, TRβ ligand binding domain (UniProt P10828 202-461, limits assumed); test: fluorescence polarization, apparent affinity, with T3
T1 construct: also called Thyroid Receptor LBD; TRβ LBD
T1 sequence (looked up): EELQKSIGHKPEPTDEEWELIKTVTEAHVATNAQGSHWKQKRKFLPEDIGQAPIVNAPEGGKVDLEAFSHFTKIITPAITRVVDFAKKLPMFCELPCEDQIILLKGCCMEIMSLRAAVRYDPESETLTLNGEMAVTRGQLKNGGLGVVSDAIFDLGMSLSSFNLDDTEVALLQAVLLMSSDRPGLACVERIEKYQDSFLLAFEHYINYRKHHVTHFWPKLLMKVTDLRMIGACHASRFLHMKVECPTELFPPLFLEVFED

[2] = molecular target: B3; test: fluorescence polarization, apparent affinity, no ligand
[3] = molecular target: T1, TRβ ligand binding domain; test: as above
[4] = molecular target: B3; test: fluorescence polarization, apparent affinity, with GW1929
[5] = molecular target: B5; test: as above
[6] = molecular target: B3; test: fluorescence polarization, apparent affinity, with rosiglitazone
[7] = molecular target: B5; test: as above
[8] = molecular target: B3; test: fluorescence polarization, 10 nM fluorescein peptide, LBD titrated, no ligand
[9] = molecular target: B5; test: as above
[10] = molecular target: B4; test: as above
[11] = molecular target: T2, ERβ ligand binding domain (amino acids 257-530) (UniProt Q92731 257-530); test: as above
T2 construct: range 257-530; not shown: His-tag
T2 sequence (Q92731 257-530 limits assumed): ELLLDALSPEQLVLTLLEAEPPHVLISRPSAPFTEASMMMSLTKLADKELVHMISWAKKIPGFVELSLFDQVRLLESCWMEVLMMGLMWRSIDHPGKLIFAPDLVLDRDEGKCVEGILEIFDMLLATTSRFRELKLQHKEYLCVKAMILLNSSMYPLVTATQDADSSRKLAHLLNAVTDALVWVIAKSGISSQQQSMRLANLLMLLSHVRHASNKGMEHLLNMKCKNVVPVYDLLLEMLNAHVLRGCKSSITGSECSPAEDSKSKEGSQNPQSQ

[12] = molecular target: T1, TRβ ligand binding domain; test: as above
[13] = molecular target: T3, RARα ligand binding domain (amino acids 146-432) (UniProt P10276 146-432); test: as above
T3 construct: range 146-432; not shown: His-tag
T3 sequence (looked up): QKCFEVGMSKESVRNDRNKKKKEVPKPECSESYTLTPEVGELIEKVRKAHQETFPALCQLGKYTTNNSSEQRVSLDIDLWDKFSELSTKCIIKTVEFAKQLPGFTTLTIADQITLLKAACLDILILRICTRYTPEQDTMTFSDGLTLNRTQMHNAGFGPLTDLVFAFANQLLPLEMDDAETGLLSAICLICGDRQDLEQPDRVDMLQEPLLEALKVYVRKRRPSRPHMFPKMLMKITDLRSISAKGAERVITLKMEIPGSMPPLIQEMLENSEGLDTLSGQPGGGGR

[14] = molecular target: T4, human PPARα ligand binding domain (amino acids 192-468) (human, UniProt Q07869 192-468); test: as above
T4 construct: range 192-468; placed at the N-terminus here; Biotinylated for FRET; also called PPARα LBD
T4 sequence: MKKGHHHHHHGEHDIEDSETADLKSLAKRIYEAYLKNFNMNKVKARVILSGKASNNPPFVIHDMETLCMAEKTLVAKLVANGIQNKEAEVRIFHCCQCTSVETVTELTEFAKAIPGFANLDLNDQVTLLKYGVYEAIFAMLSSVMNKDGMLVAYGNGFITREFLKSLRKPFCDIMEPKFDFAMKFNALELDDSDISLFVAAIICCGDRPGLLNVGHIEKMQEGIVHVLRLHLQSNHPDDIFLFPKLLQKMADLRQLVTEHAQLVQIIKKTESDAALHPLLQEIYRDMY

GAL4-NcoR (1944-end) = molecular target: T5, GAL4-NcoR (1944-end) (UniProt P04386 1-147; O75376 1944-2440); test: mammalian two-hybrid in CV-1 cells
T5 construct: range 1-147;range 1944-end; Two-hybrid construct; also called larger fragment of NCoR (1944-end)

[15] = molecular target: B1; test: fluorescence polarization, with GW1929
[16] = molecular target: T6, TRAP220 peptide (amino acids 575-599) (not fully specified; printed as N-terminal biotin in Example 1; label in the polarization assay not specified); test: fluorescence polarization, with GW1929
T6 construct: also called TRAP220 575-599
T6 peptide: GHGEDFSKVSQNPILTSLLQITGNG

[17] = molecular target: B1; test: fluorescence polarization, with rosiglitazone
[18] = molecular target: T6, TRAP220 peptide (amino acids 575-599); test: fluorescence polarization, with rosiglitazone
[19] = molecular target: B3; test: FRET, biotinylated PPAR LBD and RXRα LBD on labelled streptavidin
[20] = molecular target: B5; test: as above
[21] = molecular target: T4, human PPARα ligand binding domain …; test: as above
[22] = molecular target: T7, biotin-NCOR ID-C peptide (NCoR amino acids 2251-2275) (N-terminal biotin); test: FRET, with GW1929
T7 construct: also called NCOR-derived co-repressor peptide
T7 peptide: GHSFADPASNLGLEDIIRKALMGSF

[23] = molecular target: T7, biotin-NCOR ID-C peptide (NCoR amino …); test: FRET, with GW7845

Binder: B1
- Kd [1]: 6.2 µM
- Kd [2]: 1.2 µM
- Kd [3]: 0.72 µM
- Kd [4]: 6.7 µM
- Kd [5]: 0.44 µM
- Kd [6]: 4.7 µM
- Kd [7]: 5 µM
- Kd [8]: 1.3 µM
- Kd [9]: 5.7 µM
- Kd [10]: 25 µM
- Kd [11]: 37 µM
- Kd [12]: 1.3 µM
- Kd [13]: 2 µM
- Kd [14]: 6.1 µM

B2: VP16-human PPARα (full length) (other)
chain: LSTAPPTDVSLGDELHLDGEDVAMAHADALDDFDLDMLGDGDSPGPGFTPHDSAPYGALDMADFEFEQMFTDALGIDEYGGMVDTESPLCPLSPLEAGDLESPLSEEFLQEMGNIQEISQSIGEDSSGSFGFTEYQYLGSCPGSDGSVITDTLSPASSPSSVTYPVVPGSVDESPSGALNIECRICGDKASGYHYGVHACEGCKGFFRRTIRLKLVYDKCDRSCKIQKKNRNKCQYCRFHKCLSVGMSHNAIRFGRMPRSEKAKLKAEILTCEHDIEDSETADLKSLAKRIYEAYLKNFNMNKVKARVILSGKASNNPPFVIHDMETLCMAEKTLVAKLVANGIQNKEAEVRIFHCCQCTSVETVTELTEFAKAIPGFANLDLNDQVTLLKYGVYEAIFAMLSSVMNKDGMLVAYGNGFITREFLKSLRKPFCDIMEPKFDFAMKFNALELDDSDISLFVAAIICCGDRPGLLNVGHIEKMQEGIVHVLRLHLQSNHPDDIFLFPKLLQKMADLRQLVTEHAQLVQIIKKTESDAALHPLLQEIYRDMY
notes: also called VP16 full length PPARα
- binding result (GAL4-NcoR (1944-end)): binds

Binder: B3
- fold decrease in affinity with GW1929 against no ligand [15]: 5 fold
- fold increase in affinity with GW1929 against no ligand [16]: 5 fold
- fold decrease in affinity with rosiglitazone against no ligand [17]: ~4 fold
- fold increase in affinity with rosiglitazone against no ligand [18]: ~3 fold

Binder: B4
- binding result [19]: binds
- binding result [20]: binds
- binding result [21]: binds

Binder: B5
- log α (ratio of cofactor affinities with and without saturating ligand) [22]: 0.52
- log α (ratio of cofactor affinities with and without saturating ligand) [23]: 0.14
- fold increase in affinity with GW1929 against no ligand [15]: 12 fold

Source: patent publication US20050227220A1, “Compositions and Methods for Evaluating and Designing Nuclear Receptor Ligands that Modulate Co-Regulator Affinity” (priority 2002, published 2005)
